Results: publication PMC5095173, “Disulfide-activated protein kinase G Iα regulates cardiac diastolic relaxation and fine-tunes the Frank–Starling response” (Nature Communications, 2016)
“And” between values parts separate entries of the source, which are not always exact repeats. Equal entries are not always repeated.

B1: Lyrm1 pS110 (protein, UniProt B2RYU8 1-122, looked up)
LYR motif-containing protein 1: MTAASRQEVLGLYRSFFRLARKWQAASGQMEDTIKEKQYILNEARTLFQKNKNLTDPDLIKQCIDECTARIEIGLHYQIPYPRPIHLPPMGLTPRRGRGLQTQEKLRKFSKPLYLKSHDEVS
modifications: phosphorylated at S110
B2: Histone H1.5: PKGIα substrate, phospho site T35 (protein, UniProt D3ZBN0 2-222, looked up)
Histone H1.5: SETAPAETTAPAPVEKSPAKKKTKKAGAAKRKATGPPVSELITKAVSASKERGGVSLPALKKALAAGGYDVEKNNSRIKLGLKSLVSKGTLVQTKGTGASGSFKLNKKVASGEAKPKAKKTGAAKAKKPTGATPKKPKKTAGAKKTVKKTPKKAKKPAAAGVKKVTKSPKKAKAAAKPKKATKSPARPKAVKSKASKPKVTKPKAAKPKAAKVKKAVSKKK
modifications: phosphorylated at T35
B3: CLIP-associating protein 2: PKGIα substrate, phospho site S436 (protein, UniProt Q99JD4 1-1286, looked up)
CLIP-associating protein 2: MRRLICKRICDYKSFDDEESVDGNRPSSAASAFKVPAPKTPGNPVNSARKPGSAGGPKAGGTSKEGGAGAVDEDDFIKAFTDVPSIQIYSSRELEETLNKIREILSDDKHDWDQRANALKKIRSLLVAGAAQYDCFFQHLRLLDGALKLSAKDLRSQVVREACITVAHLSTVLGNKFDHGAEAIVPTLFNLVPNSAKVMATSGCAAIRFIIRHTHVPRLIPLITSNCTSKSVPVRRRSFEFLDLLLQEWQTHSLERHAAVLVETIKKGIHDADAEARVEARKTYMGLRNHFPGEAETLYNSLEPSYQKSLQTYLKSSGSVASLPQSDRSSSSSQESLNRPFSSKWSTANPSAVAGRVSVGGSKASPLPGSLQRSRSDIDVNAAAGAKAHHAAGQAVRSGRLGAGALNPGSYASLEDTSDKMDGTASEDGRVRAKLSTPLVAVGNAKTDSRGRSRTKMVSQSQPGSRSGSPGRVLTTTALSTVSSGAQRILVNSASAQKRSKIPRSQGCSREASPSRLSVARSSRIPRPSVSQGCSREASRESSRDTSPVRSFQPLGPGYGMSQSSRLSSSVSAMRVLNTGSDVEEAVADALLLGDIRTKKKPARRRYESYGMHSDDDANSDASSACSERSYSSRNGSIPTYMRQTEDVAEVLNRCASSNWSERKEGLLGLQNLLKNQRTLSRVELKRLCEIFTRMFADPHGKVFSMFLETLVDFIQVHKDDLQDWLFVLLTQLLKKMGADLLGSVQAKVQKALDVTRESFPNDLQFNILMRFTVDQTQTPSLKVKVAILKYIETLAKQMDPGDFINSSETRLAVSRVITWTTEPKSSDVRKAAQSVLISLFELNTPEFTMLLGALPKTFQDGATKLLHNHLRNTGNGTQSSMGSPLTRPTPRSPANWSSPLTSPTNTSQNTLSPSAFDYDTENMNSEDIYSSLRGVTEAIQNFSFRSQEDMSEPLKRDPKKEDGDTVCSGPGMSDPRAGGDAPDSSQPALDNKASLLHSVPLHSSPRSRDYNPYNYSDSISPFNKSALKEAMFDDDADQFPDDLSLDHSDLVAELLKELSNHNERIEERKIALYELMKLTQEESFSVWDEHFKTILLLLLETLGDKEPTIRALALKVLKEILRHQPARFKNYAELTVMKTLEAHKDPHKEVVRSAEEAASVLATSISPEQCIKVLCPIIQTADYPINLAAIKMQTKVIERVSKETLNLLLPEIMPGLIQGYDNSESSVRKACVFCLVAVHAVIGDELKPHLSQLTGSKMKLLNLYIKRAQTGSAGADPTTDVSGQS
modifications: phosphorylated at S436
B4: Cytoplasmic dynein 1 light intermediate chain 1: PKGIα substrate, phospho sites T408 (r11) and S412 (r12) (protein, UniProt Q9QXU8 1-523, looked up)
Cytoplasmic dynein 1 light …: MAAVGRVGSFGSSPPGLASTYASGPLANELASGSGGPAAGDDEDGQNLWSRILREVSTRSRSKLPTGKNVLLLGEDGAGKTSLIRRIQGIEEYKKGRGLEYLYLNVHDEDRDDQTRCNVWILDGDLYHKGLLKFSLDALSLRDTLVMLVVDMSKPWTALDSLQKWASVVREHVDKLKIPPEEMKEMEQKLIRDFQEYVEPGEDFPASPQRRATAAQEDRDDSVVLPLGADTLTHNLGLPVLVVCTKCDAISVLEKEHDYRDEHFDFIQSHIRKFCLQYGAALIYTSVKENKNIDLVYKYIVQKLYGFPYKIPAVVVEKDAVFIPAGWDNDKKIGILHENFQTLKIEDNFEDIITKPPVRKFVHEKEIMAEDDQVFLMKLQSLLAKQPPTAAGRPVDASPRVPGGSPRTPNRSVSSNVASVSPIPAGSKKIDPNMKAGATSEGVLANFFNSLLSKKTGSPGGPGVGGSPGGGAAGASTSLPPSAKKSGQKPVLSDVHAELDRITRKPASVSPTTPPSPTEGEAS
modifications: phosphorylated at T408 and S412
B5: G-protein-signaling modulator 1: PKGIα substrate, phospho site S567 (protein, UniProt Q9R080 1-673, looked up)
G-protein-signaling modulator …: MASPAPPAAEELPGPAARRLYSRMEASCLELALEGERLCKAGDFKAGVAFFEAAVQVGTEDLKTLSAIYSQLGNAYFYLKEYARALQFHKHDLLLARTIGDRMGEAKASGNLGNTLKVLGRFDEAIVCCQRHLDIAQEQGDKVGEARALYNIGNVYHAKGKQLSWNAAQDPGHLPPDVRETLHRASEFYERNLSLVKELGDRAAQGRAYGNLGNTHYLLGNFTEATTFHKERLAIAKEFGDKAAERRAYSNLGNAHIFLGRFDVAAEHYKKTLQLSRQIRDQAVEAQACYSLGNTYTLLQDYERAAEYHLRHLVIAQELADRVGEGRACWSLGNAYVSMGSPAQALTFAKKHLQISQEIGDRNGELTARMNIAHLQLALGRLTSPAAAEKPDLAGYEAQGARPKRTQRLSAETWDLLRLPLDREQNGETHHTGDWRGPSRDSLPLPMRSRKYQEGPDAIERRPREGSHSPLDSADVRVQVPRTGIPRAPSSDEECFFDLLSKFQSSRMDDQRCPLEEGQAGAAEATAAPTLEERAAQPSVTASPQTEEFFDLIASSQSRRLDDQRASVGSLPGLRITLNNVGHLRGDGDPQEPGDEFFNMLIKYQSSRIDDQRCPPPDVLPRGPTMPDEDFFSLIQRVQAKRMDEQRVDLAGSPDQEASGLPDPRQQCPPGAS
modifications: phosphorylated at S567
B6: Heat shock protein beta-6: PKGIα substrate, phospho site S16 (protein, UniProt P97541 1-162, looked up)
Heat shock protein beta-6: MEIRVPVQPSWLRRASAPLPGFSTPGRLFDQRFGEGLLEAELASLCPAAIAPYYLRAPSVALPTAQVPTDPGYFSVLLDVKHFSPEEISVKVVGDHVEVHARHEERPDEHGFIAREFHRRYRLPPGVDPAAVTSALSPEGVLSIQATPASAQASLPSPPAAK
modifications: phosphorylated at S16
B7: Histone H1.4: PKGIα substrate, phospho site S36 (protein, UniProt P43274 2-219, looked up)
Histone H1.4: SETAPAAPAAPAPAEKTPVKKKARKAAGGAKRKTSGPPVSELITKAVAASKERSGVSLAALKKALAAAGYDVEKNNSRIKLGLKSLVSKGTLVQTKGTGASGSFKLNKKAASGEAKPKAKRAGAAKAKKPAGAAKKPKKAAGTATAKKSTKKTPKKAKKPAAAAGAKKAKSPKKAKATKAKKAPKSPAKAKTVKPKAAKPKTSKPKAAKPKKTAAKKK
modifications: phosphorylated at S36

test system: PKGIα (analogue-sensitive M438G), disulfide-activated; test: Chemical genetic phosphoproteomic screen, disulfide-activated PKGIα M438G versus unactivated control; type: biochemical, human PKGIα; substrates in rat heart homogenate; settings: control = PKGIα C42S/M438G
Description: (§1) We employed a chemical genetic method[18] to identify direct substrates of cGMP-activated PKGIα and disulfide bond-activated PKGIα in heart tissue. This method involves mutation of the ATP binding-site of the kinase of interest so that it can accept a ‘bulky' N6-alkylated ATP analogue for example, N6^−phenylethyl ATP. An oxygen atom on the γ phosphate is also replaced with a sulfur atom—giving an N6-alkylated ATPγS analogue—so that the mutant kinase catalyses the transfer of a thiophosphate group (–PO3S^3−) to its substrates instead of a phosphate. The thiophosphate group is nucleophilic, providing a basis for substrates of the analogue-sensitive kinase to be purified by a ‘covalent capture' protocol. LC–MS/MS allows identification of the substrate and localization of the phosphorylation site. Thiophosphorylated proteins can also be detected with a thiophosphate ester-specific antibody. Analogue-sensitive mutants of PKGIα and PKGIα C42S (which cannot form the activating intermolecular disulfide bond) were generated by mutating Met438 in the ATP-binding domain to Gly. This mutation was chosen based on a previous study where an analogue-sensitive mutant of the catalytic subunit of PKA—which shares sequence homology with PKGIα—was engineered. Detailed protocols are given below.
(§2) A pCDNA3 expression vector encoding human FLAG-tagged PKGIα (ref. [41]) underwent site-directed mutagenesis to generate constructs for untagged WT, C42S, M438G and C42S/M438G PKGIα. Mutations were introduced using the QuikChange II Site-Directed Mutagenesis Kit (Agilent) according to the manufacturer's instructions. Expression and purification of the PKGIα mutants was performed according to a published method[42] as follows: suspension FreeStyle 293-F cells (ThermoFisher Scientific) were transfected with the appropriate PKGIα construct using the stable cationic polymer polyethyleneimine (PEI) as a transfection reagent. After ∼72 h cells were harvested by centrifugation (400g; room temperature; 15 min), re-suspended in ice cold lysis buffer (25 mM sodium phosphate buffer pH 6.8; 10 mM ethylenediaminetetraacetic acid (EDTA); 100 mM NaCl; 10 mM benzamidine hydrochloride; and 10 mM dithiothreitol (DTT)) and frozen in liquid N2. Cells were lysed by three freeze (liquid N2)-thaw (37 °C) cycles and the lysate was clarified by centrifugation at 140,000g and 4 °C for 30 min. The soluble protein fraction was loaded onto a pre-equilibrated 8-(2-aminoethylamino)adenosine-3′, 5′-cyclic monophosphate column (8-AEA-cAMP agarose; BioLog, Germany) followed by washing with 20 column volumes of lysis buffer. The column was further washed with lysis buffer +3 M NaCl (5 column volumes) and PKGIα was then eluted with lysis buffer +150 mM NaCl and 500 μM cAMP. Removal of cAMP and buffer exchange was achieved by extensive dialysis against 25 mM sodium phosphate buffer pH 6.8, 2 mM EDTA and 100 mM NaCl. For ITC analysis, WT PKGIα was incubated with 10 mM lipoic acid for 2 h on ice to obtain ∼100% disulfide dimer (confirmed by SDS-PAGE). Oxidized WT or C42S PKGIα was further purified by size exclusion chromatography using a HiLoad 16/600 Superdex 200 pg column (GE Healthcare) with 50 mM sodium phosphate buffer pH 7.4 and 100 mM NaCl. Proteins were concentrated using Amicon Ultra centrifugal filter devices (Merck Millipore). DTT was absent in storage buffers so that the activating disulfide bond would not be reduced and so that the PKGIα M438G mutant would be oxidized to disulfide dimer in the presence of air (confirmed by SDS-PAGE). Protein concentration was determined by Pierce BCA assay (ThermoFisher) and enzyme activity was confirmed using the Omnia kinase assay kit (ThermoFisher).
(§3) Male Wistar rats (9–10 weeks; body weight 300–330 g) were euthanized by intraperitoneal injection of sodium pentobarbitone (200 mg kg^−1) with heparin (500 USP units). […]

Row | Molecule | log2 fold change Disulfide vs Control
1 | B1 | 0.4439 and 0.5384

same assay, conditions: disulfide-activated PKGIα M438G vs basal; 1 h, 30 °C, pH 7.5, rat heart homogenate; label-free LC–MS/MS; n=4; * P<0.05 Dunnett: only phospholamban S16

Row | Molecule | Log2 fold change in phosphorylation, Disulfide versus control
2 | B2 | 1.43
3 | B3 | 0.86
4 | B4 | 1.95
5 | B5 | 1.04
6 | B6 | 1.25
7 | B7 | 0.48

same assay, conditions: phospho site S412 (second site of this protein); n=4; not significant

Row | Molecule | Log2 fold change in phosphorylation, Disulfide versus control
8 | B4 | 1.66

test system: PKGIα (analogue-sensitive C42S/M438G), cGMP-activated; test: Chemical genetic phosphoproteomic screen, cGMP-activated PKGIα C42S/M438G versus unactivated control; type: biochemical, human PKGIα; substrates in rat heart homogenate; settings: PKGIα C42S/M438G + 100 μM cGMP vs basal; 1 h, 30 °C, pH 7.5, rat heart homogenate; label-free LC–MS/MS; n=4; * P<0.05 Dunnett: all values except phospholamban S16
Description: as §1, §2, §3

Row | Molecule | Log2 fold change in phosphorylation, cGMP versus control
9 | B2 | 3.90*
10 | B3 | 1.79*
11 | B4 | 3.76*
12 | B5 | 2.93*
13 | B6 | 2.61*
14 | B7 | 1.30*

same assay, conditions: phospho site S412 (second site of this protein); n=4; * P<0.05

Row | Molecule | Log2 fold change in phosphorylation, cGMP versus control
15 | B4 | 4.15*
